Reference: patent US20070134256A1

B1: chimpanzee Fab 1A5 (Fab, V domains shown)
VH: EVQLLESGGGLVQPGGSRRLSCAASGFTISDNVMHWVRQAPGKGLEWVALIYSADTTHYADSVKGRFTISRDNSKNTLYLQMDSLRPEDTAVYYCAREYCTGDTCFAHFDYWGQGTLVSVSS
VL: ELQMTQSPSSVSASVGDTVTIACRASQSITNYLSWYQQKPGKAPKLLIYHASTLQSGIPSRFSGSGSGTDFTLTISSLQPDDFATYYCHYGYGTHTFGQGTKLEIKRT
B2: fusion peptide … (peptide)
peptide: DRGWGNGSGLFGKGG
modifications: not checked

Legend:
[1] = target: DENV-2 antigenic variant NGC-V2 (dengue type 2 virus), P14340; experiment: cell-based or functional assay
[2] = target: chimpanzee Fab 1A5; experiment: competition ELISA: Fab 1A5 (1.04 nM) pre-incubated with peptide in serial dilution, then binding to DENV-2 coated wells

| Binder | PRNT50 titer [1] [µg/mL] | IC50 [2] [µM] |
| --- | --- | --- |
| B1 | > 70 |  |
| B2 |  | 170 |
